According to patent US6613358B2, “Sustained-release composition including amorphous polymer” (priority 1998, dated 2003):
Several values for one entry are separate records, joined by “and”; a condition that tells them apart may be missing. Identical values can stand only once. Peptide text beside a SMILES is read from it.

Tests used:
[1] = Partitioning and dissolution of SDS-insulin complexes in non-aqueous solvents; format: physicochemical; conditions: for Apparent Sol. / Log P: SDS-insulin complex
Description: Dissolution of insulin-SDS complexes in other solvents was investigated as well (Table 1). Precipitates of SDS-insulin complexes were isolated and added to various organic solvents. […] Besides alcohols. SDS-insulin complexes are soluble in N-methylpyrrolidone (NMP), trimethylphosphate (TRIP), polyethylene glycol, ethanol, and t-butanol.

[2] = Melting point of SDS:insulin ion pairs in 1-octanol (CD signal and absorbance at 222 nm); format: physicochemical
Protocol: Equal volumes of octanol were added to each SDS:insulin solution to partition the insulin into the octanol phase. […] Both circular dichroism (CD) signal and light scattering (as measured by changes in absorbance) were measured at 222 nm and the melting point determined by an inflection point in the measured scan.

[3] = Thermal denaturation (Tm) following molar ellipticity at 222 nm; format: physicochemical
Description: [define Tm. […] (FIG. 6), which is more than 30 degrees above that observed in water.

[4] = CD spectrometry of protein structure in organic solvent; format: physicochemical; conditions: extracted from 1-octanol into 0.10 M HCl; 53 ug/ml, 5° C.
Protocol: CD spectra were recorded on an Aviv 62DS spectrophotometer equipped with a thermoelectric temperature unit. All temperatures were measured ±0.2° C. Samples were placed in strain-free quartz cells (pathlength of 1 mm) and spectra obtained taking data every 0.25 nm using a three second averaging time, and having a spectral bandwidth of 1 nm.
The pathlength was 1 mm, the sample concentration 53 ug/ml, and the sample temperature 5° C.

[5] = Apparent partition coefficient water/1-octanol upon SDS addition
Description: The relative solubilities in two phases is given in terms of an apparent partition coefficient. The apparent partition coefficient is defined as the ratio of the equilibrium concentration in an organic phase to that in an aqueous phase. The actual value of the apparent partition coefficient, P, is dependent on the two solvent systems employed. In all cases herein described, the organic phase is 1-octanol and the aqueous phase is water alone or with a minimal amount of HCl added.
Apparent partition coefficients were measured by dissolving a peptide in 1.25 ml of an aqueous solution. Before SDS addition, the pH was measured on a Beckman pH meter. […] An equal volume of 1-octanol was added and the mixtures agitated, and then left undisturbed for several hours. Prior to analysis, the tubes were spun for 10 minutes at 4000 g. Each layer was removed and the absorbance measured on a Beckman DU-64 UV-visible spectrophotometer using I cm quartz cells. All apparent partition coefficients were corrected for changes in pH with differing SDS concentrations.
Results are described as logarithms of the apparent partition coefficient. A log P value of 0 means that the compound is equally soluble in water and the organic phase. […] All of the log P values reported herein have been corrected for slight changes in solubility with pH.

[6] = Partitioning of anionic compounds with arginine esters; format: physicochemical; conditions: for log p: pH 5.5 buffer, 1 mg/mL
Protocol: Stock solutions of the arginine esters were made by first dissolving the powder in 0.1 N HCl to give a 10 mM solution and then raising the pH to a value between 5 and 6. The pH should not be raised above 8.
Anionic compounds were dissolved in pH 5.5 buffer (10 mM bis-tris propane, 10 mM CaCl2, 10 mM KCl). Appropriate amounts of the stock solution of arginine ester (see above), the anionic compound and buffer were mixed so that the final concentration of the anionic material was 1 mg/mL. An equal volume of organic solvent was added, and the samples were vortexed for 15 seconds on high speed. Layers were separated by centrifugation at 4000 rpm for 5 minutes. Concentrations of the anionic material in the aqueous and organic layers were determined by UV spectroscopy on a Beckman DU-64 series spectrophotometer.

[7] = Solubility of arginine octyl ester powder; format: physicochemical
[8] = Surface tension, critical micelle concentration; format: physicochemical; conditions: in 0.1 N HCl
Protocol: Surface tension was measured using a Fisher surface tensiometer. Briefly, a platinum iridium ring with a diameter of 6 cm was lowered into the appropriate dilution of detergent in 0.1 N HCl. Surface tension was read at the point where the force on the ring upwards caused the ring to break contact with the liquid surface.

[9] = format: physicochemical
Description: Larger proteins can also form complexes with SDS. […] At higher SDS concentrations, hGH redissolves, presumably via micellar solubilization. […] Other proteins can also form complexes with SDS. Bovine pancreatic trypsin inhibitor (BPTI) is a small basic protein (MW 5900) with a well defined and stable structure (Wlodawer et. al. (1984) J. Mol. Biol. 180:301-329, and (1987) J. Mol. Biol. 193:145-156). […] In TMP, the globular structure is compromised, as determined by CD spectroscopy. Apparently, TMP is a strong enough solvent to displace water from the hydration sphere and destabilize the structure of BPTI. This mechanism of protein denaturation has been described in detail by Arakawa and […] (1982) Biochemistry 21:6536-6544. and (1982) Biochemistry 21:6545-6552.

[10] = system: COS-7 cells; assay: Cytotoxicity, MTS cell proliferation assay; format: cell-based, green monkey
Protocol: (§1) The cytotoxicity of arginine dodecyl ester was investigated in cell culture with two types of cells (see Cory et al, Cancer Commun., 3, 207-212 (1991)): CCRF-CEM cells, a human T-cell leukemia cell line that grows in suspension (obtained from the American Type Culture Collection, ATCC); and a green monkey kidney cell line (COS-7) that grows in monolayers (also obtained from ATCC). For comparison, the cells were also exposed to […] bromide (DTAB) (Sigma).
Cells were plated into 96-well plates (Corning) in a total of 200 μL Dulbecco's modified minimal essential medium for COS-7 cells, RPMI 1640 for CEM cells, supplemented with penicillin G (50 U/ml), streptomycin sulfate (50 μg/ml), and 10% fetal calf serum, at 10,000 cells/well for COS-7 and 50,000 cells/well for CEM cells. The plates were incubated at 37° C. for 24 hours after plating. The cells were then exposed to various concentrations of the detergents. Each detergent concentration was used in 8 replicate wells. After 2-6 hours, media/detergent solutions were aspirated, and the wells were washed twice with PBS. For CEM suspension cells, centrifugation of the suspension at 1000× g for 5 min between each wash was required. […] After 72 hours, cell proliferation was determined using the Promega CellTiter 96 AQueous Non-Radioactive Cell Proliferation Assay. […]

[11] = system: CCRF-CEM cells; assay: Cytotoxicity, MTS cell proliferation assay; format: cell-based, human; conditions: for IC50: Homo sapiens, 2-6 hours exposure, 72 hours incubation, read-out: IC50 (half-maximal growth inhibition)
Protocol: as §1
Cells were plated into 96-well plates (Corning) in a total of 200 μL Dulbecco's modified minimal essential medium for COS-7 cells, RPMI 1640 for CEM cells, supplemented with penicillin G (50 U/ml), streptomycin sulfate (50 μg/ml), and 10% fetal calf serum, at 10,000 cells/well for COS-7 and 50,000 cells/well for CEM cells. The plates were incubated at 37° C. for 24 hours after plating. The cells were then exposed to various concentrations of the detergents. Each detergent concentration was used in 8 replicate wells. After 2-6 hours, media/detergent solutions were aspirated, and the wells were washed twice with PBS. For CEM suspension cells, centrifugation of the suspension at 1000× g for 5 min between each wash was required. After washing, 200 μL of fresh medium were added, and the cells were incubated for 72 hours. After 72 hours, cell proliferation was determined using the Promega CellTiter 96 AQueous Non-Radioactive Cell Proliferation Assay.

[12] = system: COS-7 cells; assay: Transfection of plasmid pRSV400luc, luciferase activity; format: cell-based, green monkey; conditions: without liposomes or helper lipids; serum-containing medium
Description: The plasmid used was pRSV400luc. It was obtained from Dr. David Gordon Div. Endocrinology, University of Colorado School of Medicine, Denver, Colo. It was propagated in Escherichia coil strain DH5a (ATCC), isolated by a standard alkaline-SDS Iysis procedure, and purified twice by isopycnic centrifugation on CsCl gradients (Sambrook et al, Molecular Cloning: A Laboratory Manual (Cold Spring Harbor Laboratory) (1989). COS-7 cells at approximately 50,000 cells per 60 mm diameter plate (Falcon) were used for transfection. Control experiments were done with Lipofectamine (GIBCO/Life Technologies, Gaithersburg, Md.).
In 200 total μl of serum-free medium, plasmid (20 μg) and Lipofectamine or arginine dodecyl ester were mixed and allowed to interact for 45 minutes. […] Plates with cells were washed with serum-free medium. Then, 1 mL serum-free medium was added to plates already containing 2 mL serum-free medium and the plates were incubated at 37° C. for 4 hours. […]
After allowing cells to grow and express gene product for 36-50 hours, the cells were harvested. […] Intensity of luminescence should be proportional to the amount of expressed luciferase and, therefore, the efficiency of transfection. “Background” is the reading from just the substrate mixture on the luminometer before addition of cell lysate. […] Any reading over 100 units is considered significant.

[13] = organic solvent Propylene Glycol
[14] = organic solvent Trifluoroethanol
[15] = organic solvent Trimethyl phosphate

For “insulin-SDS complex: hydrophobic ion pair complex of insulin with sodium dodecyl sulfate”, the “solubility in organic solvents” value [1] was “soluble”, the “melting point in octanol (apparent maximum)” value ([2]; 6:1 SDS:insulin molar ratio, 200 ug/ml) was “about 116 °C” and the “melting point in octanol, absorbance scan at 222 nm” value ([2]; 9:1 SDS:insulin molar ratio) was 106 °C. The “melting point in octanol, CD scan at 222 nm” value ([2]; 9:1 SDS:insulin molar ratio, maxima of first derivative) was 106 °C and the “structure after prolonged heating” value ([3]; in 1-octanol, 70° C. for more than 1 hour) was “appears to maintain its native structure”.

For insulin, the “Apparent Sol.” value ([1]; organic solvent 1-Chlorooctane) was “insoluble”, the “Log P” value ([1]; organic solvent 1-Chlorooctane) was “not detectable” and the “Apparent Sol.” value ([1]; organic solvent 1-octanol) was “≧1.0 mg/ml”. For the same compound, the “Log P” value ([1]; organic solvent 1-octanol) was “≧1.2”, the “Log P” value ([1]; organic solvent Acetone) was “miscible” and the “Apparent Sol.” value ([1]; organic solvent CCl4) was “insoluble”. The “Log P” value ([1]; organic solvent CCl4) was “not detectable”, the “Apparent Sol.” value ([1]; organic solvent CH2Cl2) was “insoluble” and the “Log P” value ([1]; organic solvent CH2Cl2) was “not detectable”. For the same compound, the “Apparent Sol.” value ([1]; organic solvent DMF) was “≧1.0 mg/ml”, the “Log P” value ([1]; organic solvent Dimethoxyethane) was “not detectable” and the “Apparent Sol.” value ([1]; organic solvent Ethanol) was “≧1.0 mg/ml”. For the same compound, the “Log P” value ([1]; organic solvent Ethanol) was “miscible”, the “Apparent Sol.” value ([1]; organic solvent Ether) was “insoluble” and the “Log P” value ([1]; organic solvent Ether) was “not detectable”. The “Apparent Sol.” value ([1]; organic solvent Ethyl acetate) was “insoluble”, the “Log P” value ([1]; organic solvent Ethyl acetate) was “miscible” and the “Apparent Sol.” value ([1]; organic solvent Hexane) was “insoluble”. The “Log P” value ([1]; organic solvent Hexane) was “not detectable”, the “Apparent Sol.” value ([1]; organic solvent Methanol) was “≧1.0 mg/ml” and the “Log P” value ([1]; organic solvent Methanol) was “miscible”. For the same compound, the “Apparent Sol.” value ([1]; organic solvent Mineral Oil) was “insoluble”, the “Log P” value ([1]; organic solvent Mineral Oil) was “not detectable” and the “Apparent Sol.” value ([1]; organic solvent NMP) was “≧1.0 mg/ml”. For the same compound, the “Log P” value ([1]; organic solvent NMP) was “miscible”, the “Apparent Sol.” value ([1]; organic solvent PEG 400) was “≧0.2 mg/ml” and the “Log P” value ([1]; organic solvent PEG 400) was “miscible”. For the same compound, the “Apparent Sol.” value [1, 13] was “≧0.5 mg/ml”, the “Log P” value [1, 13] was “miscible” and the “Log P” value ([1]; organic solvent THF) was “miscible”. For the same compound, the “Apparent Sol.” value ([1]; organic solvent TMP) was “≧0.2 mg/ml”, the “Log P” value ([1]; organic solvent TMP) was “miscible” and the “Apparent Sol.” value [1, 14] was “≧0.5 mg/ml”. The “Log P” value [1, 14] was “miscible”, the “Apparent Sol.” value [1, 15] was “≧0.15 mg/ml” and the “Log P” value [1, 15] was “miscible”. The “Apparent Sol.” value ([1]; organic solvent i-Propanol) was “≧1.0 mg/ml”, the “Log P” value ([1]; organic solvent i-Propanol) was “miscible” and the “structure by CD after extraction back into aqueous phase” value [4] was “overall structure similar to that of native insulin”. The “Tm in 1-octanol above that observed in water” value [3] was “more than 30 degrees”, the “Tm of thermal denaturation” value ([3]; in 1-octanol (SDS complex), molar ellipticity at 222 nm) was 98 °C and the “Tm of thermal denaturation” value ([3]; in aqueous solution) was “about 65 °C”.

With Gly-Phe-NH2 the “partitioning of SDS complex into 1-octanol” value ([5]; pH 7, 1:1 complex with SDS) was “readily partitions into 1-octanol”.

For “bovine serum albumin: protein tested for partitioning with arginine dodecyl ester”, the “partitioning into octanol layer” value ([6]; arginine dodecyl ester added, solutions turned cloudy) was “none would partition into octanol layer”.

In the case of `Cc1ccc(S(=O)(=O)[O-])cc1.[Na+]` [p-toluenesulfonic acid, sodium salt], the log p ([6]; Ester C8 (arginine octyl ester), solvent isooctane) is reported as −2.2, the log p ([6]; Ester C8 (arginine octyl ester), solvent octanol) is reported as −0.353 and the log p ([6]; Ester C12 (arginine dodecyl ester), solvent octanol) is reported as −0.336. It also gave a log p ([6]; Ester none, solvent isooctane) of −2.7 and a log p ([6]; Ester none, solvent octanol) of −1.62.

For `NC(=O)CC[C@@H]1NC(=O)[C@H](Cc2ccccc2)NC(=O)[C@H](Cc2ccc(O)cc2)NC(=O)[C@@H](N)CSSC[C@@H](C(=O)N2CCC[C@H]2C(=O)N[C@@H](CCCN=C(N)N)C(=O)NCC(N)=O)NC(=O)[C@H](CC(N)=O)NC1=O` [AVP, 8-Arg-vasopressin], the log p ([5]; pH 7) was > 1 and the “increase of apparent partition coefficient” value ([5]; upon stoichiometric SDS addition, water/1-octanol) was “nearly four orders of magnitude”.

For `CCCCCCCCOC(=O)[C@@H](N)CCCNC(=N)N` [arginine octyl ester], the “dissolution in HCl” value [7] was “would only dissolve in 0.1 N or stronger HCl”, the solubility in water [7] was “insoluble” and the solubility in organics ([7]; alcohols, hydrocarbons, aromatics, DMF and pyridine) was “insoluble”. The “critical micelle concentration (cmc)” value [8] was “about 6 mM and ~2.2 mg/ml”.

With hGH: human growth hormone the “solubility of SDS precipitate in 1-octanol” value [9] was “not found to be soluble”, the “aqueous behaviour on addition of SDS” value ([9]; pH 2) was “precipitates from aqueous solution” and the “aqueous solubility on addition of SDS” value ([9]; pH 7.8) was “not affected”.

`CCCCCCCCCCCCCC[N+](C)(C)C` [DTAB, tetradecyltrimethylammonium bromide, reference compound] gave an IC50 ([10]; Chlorocebus sabaeus, 2-6 hours exposure, 72 hours incubation, read-out: IC50 (half-maximal growth inhibition)) of 80 µM and an IC50 [11] of 20 µM.

For `CCCCCCCCCCCCOC(=O)[C@@H](N)CCCNC(=N)N` [arginine dodecyl ester], the “transfection of the plasmid” value [12] was “promoted transfection of the plasmid in a concentration and time dependent manner”, the “toxicity relative to DTAB” value [10] was “approximately two-fold less toxicity” and the “toxicity relative to DTAB” value [11] was “seven-fold less toxicity”. The IC50 [11] was 150 µM and the “critical micelle concentration (cmc)” value [8] was “approximately 0.3 mM and ~0.10 mg/ml”.

In the case of `NCC(=O)N[C@@H](Cc1ccccc1)C(=O)O` [Gly-Phe] (H-Gly-Phe-OH), the “enhancement of partition coefficient with SDS” value ([5]; neutral pH (zwitterionic form)) is reported as “little enhancement of the partition coefficient is observed” and the “partitioning with SDS” value ([5]; pH 3) is reported as “mirrors the marked increase seen for Gly-PheNH2”.
